*1 amine or outer side, *2 acyl side, *3 side chain or, on linkers, in order; H or OH if unused. [ ]: non-standard residue; d: D form. TyrEtNAc = L-tyrosine O-ethyl acetamide, (S)-3-(4-(2-acetamidoethoxy)phenyl)-2-aminopropanoic acid, CC(=O)NCCOc1ccc(C[C@H](N[*:1])C(=O)[*:2])cc1; Trp(4-Cl)(βS-Me) = C[C@@H](c1c[nH]c2cccc(Cl)c12)[C@H](N)C(=O)O; Pro(trans-4-NH2) = O=C([C@@H]1C[C@@H](N[*:3])CN1[*:1])[*:2]; Bip(4'-COOH) = N[C@@H](Cc1ccc(-c2ccc(C(=O)O)cc2)cc1)C(=O)O; 1Nal(3S-Me) = C[C@@H](c1cccc2ccccc12)[C@H](N)C(=O)O; Phe(4-COOH) = N[C@@H](Cc1ccc(C(=O)O)cc1)C(=O)O; h3Pal(5-CN) = N#Cc1cncc(CC[C@H](N)C(=O)O)c1; Phe(4-NH2) = Nc1ccc(C[C@H](N)C(=O)O)cc1; 1Nal = N[C@@H](Cc1cccc2ccccc12)C(=O)O; hTyr = N[C@@H](CCc1ccc(O)cc1)C(=O)O; dDab = NCC[C@@H](N)C(=O)O; Orn = NCCC[C@H](N)C(=O)O; dNMeA = CN[C@H](C)C(=O)O; Dap = NC[C@H](N)C(=O)O; Aib = CC(C)(N)C(=O)O
biological target: Recombinant human IL-1β (BioLegend 579404) (human, UniProt P01584 117-269); test: cell-based or functional assay

| Binder | MRC5 IC50 |
| --- | --- |
| cyclo([TyrEtNAc]W[Phe(4-COOH)]G[Pro(trans-4-NH2)][1Nal(3S-Me)]D[dNMeA]G[Bip(4'-COOH)]W[Dap][dNMeA][hTyr]) (SMILES CC(=O)NCCOc1ccc(C[C@@H]2NC(=O)[C@H](CCc3ccc(O)cc3)NC(=O)[C@@H](C)N(C)C(=O)[C@H](CN)NC(=O)[C@H](Cc3c[nH]c4ccccc34)NC(=O)[C@H](Cc3ccc(-c4ccc(C(=O)O)cc4)cc3)NC(=O)CNC(=O)[C@@H](C)N(C)C(=O)[C@H](CC(=O)O)NC(=O)[C@H]([C@@H](C)c3cccc4ccccc34)NC(=O)[C@@H]3C[C@@H](N)CN3C(=O)CNC(=O)[C@H](Cc3ccc(C(=O)O)cc3)NC(=O)[C@H](Cc3c[nH]c4ccccc34)NC2=O)cc1) [SEQ ID NO: 121 (Example No. 121)] | 0.085 nM |
| cyclo([TyrEtNAc]W[Phe(4-COOH)]G[Pro(trans-4-NH2)][Trp(4-Cl)(βS-Me)]D[dNMeA]G[Bip(4'-COOH)][1Nal]L[dA][hTyr]) (SMILES CC(=O)NCCOc1ccc(C[C@@H]2NC(=O)[C@H](CCc3ccc(O)cc3)NC(=O)[C@@H](C)NC(=O)[C@H](CC(C)C)NC(=O)[C@H](Cc3cccc4ccccc34)NC(=O)[C@H](Cc3ccc(-c4ccc(C(=O)O)cc4)cc3)NC(=O)CNC(=O)[C@@H](C)N(C)C(=O)[C@H](CC(=O)O)NC(=O)[C@H]([C@@H](C)c3c[nH]c4cccc(Cl)c34)NC(=O)[C@@H]3C[C@@H](N)CN3C(=O)CNC(=O)[C@H](Cc3ccc(C(=O)O)cc3)NC(=O)[C@H](Cc3c[nH]c4ccccc34)NC2=O)cc1) [SEQ ID NO: 131 (Example No. 131)] | 0.0498 nM |
| cyclo([TyrEtNAc]W[Phe(4-COOH)]G[Pro(trans-4-NH2)][Trp(4-Cl)(βS-Me)]D[dNMeA]G[Bip(4'-COOH)][1Nal][Dap][Aib][h3Pal(5-CN)]) (SMILES CC(=O)NCCOc1ccc(C[C@@H]2NC(=O)[C@H](CCc3cncc(C#N)c3)NC(=O)C(C)(C)NC(=O)[C@H](CN)NC(=O)[C@H](Cc3cccc4ccccc34)NC(=O)[C@H](Cc3ccc(-c4ccc(C(=O)O)cc4)cc3)NC(=O)CNC(=O)[C@@H](C)N(C)C(=O)[C@H](CC(=O)O)NC(=O)[C@H]([C@@H](C)c3c[nH]c4cccc(Cl)c34)NC(=O)[C@@H]3C[C@@H](N)CN3C(=O)CNC(=O)[C@H](Cc3ccc(C(=O)O)cc3)NC(=O)[C@H](Cc3c[nH]c4ccccc34)NC2=O)cc1) [SEQ ID NO: 130 (Example No. 130)] | 0.114 nM |
| cyclo([TyrEtNAc]W[Phe(4-COOH)]G[Pro(trans-4-NH2)][1Nal(3S-Me)]D[dNMeA]G[Bip(4'-COOH)]WL[dA]A) (SMILES CC(=O)NCCOc1ccc(C[C@@H]2NC(=O)[C@H](C)NC(=O)[C@@H](C)NC(=O)[C@H](CC(C)C)NC(=O)[C@H](Cc3c[nH]c4ccccc34)NC(=O)[C@H](Cc3ccc(-c4ccc(C(=O)O)cc4)cc3)NC(=O)CNC(=O)[C@@H](C)N(C)C(=O)[C@H](CC(=O)O)NC(=O)[C@H]([C@@H](C)c3cccc4ccccc34)NC(=O)[C@@H]3C[C@@H](N)CN3C(=O)CNC(=O)[C@H](Cc3ccc(C(=O)O)cc3)NC(=O)[C@H](Cc3c[nH]c4ccccc34)NC2=O)cc1) [SEQ ID NO: 124 (Example No. 124)] | 0.636 nM |
| cyclo([TyrEtNAc]W[Phe(4-COOH)]G[Pro(trans-4-NH2)][1Nal(3S-Me)]D[dNMeA]G[Bip(4'-COOH)]W[Orn][Aib][hTyr]) (SMILES CC(=O)NCCOc1ccc(C[C@@H]2NC(=O)[C@H](CCc3ccc(O)cc3)NC(=O)C(C)(C)NC(=O)[C@H](CCCN)NC(=O)[C@H](Cc3c[nH]c4ccccc34)NC(=O)[C@H](Cc3ccc(-c4ccc(C(=O)O)cc4)cc3)NC(=O)CNC(=O)[C@@H](C)N(C)C(=O)[C@H](CC(=O)O)NC(=O)[C@H]([C@@H](C)c3cccc4ccccc34)NC(=O)[C@@H]3C[C@@H](N)CN3C(=O)CNC(=O)[C@H](Cc3ccc(C(=O)O)cc3)NC(=O)[C@H](Cc3c[nH]c4ccccc34)NC2=O)cc1) [SEQ ID NO: 127 (Example No. 127)] | 0.432 nM |
| cyclo([TyrEtNAc]W[Phe(4-COOH)]G[Pro(trans-4-NH2)][1Nal(3S-Me)]N[dNMeA]G[Bip(4'-COOH)]W[Dap][dA][hTyr]) (SMILES CC(=O)NCCOc1ccc(C[C@@H]2NC(=O)[C@H](CCc3ccc(O)cc3)NC(=O)[C@@H](C)NC(=O)[C@H](CN)NC(=O)[C@H](Cc3c[nH]c4ccccc34)NC(=O)[C@H](Cc3ccc(-c4ccc(C(=O)O)cc4)cc3)NC(=O)CNC(=O)[C@@H](C)N(C)C(=O)[C@H](CC(N)=O)NC(=O)[C@H]([C@@H](C)c3cccc4ccccc34)NC(=O)[C@@H]3C[C@@H](N)CN3C(=O)CNC(=O)[C@H](Cc3ccc(C(=O)O)cc3)NC(=O)[C@H](Cc3c[nH]c4ccccc34)NC2=O)cc1) [SEQ ID NO: 129 (Example No. 129)] | 0.0828 nM |

More lines, now with the values ahead:

| MRC5 IC50 | Binder |
| --- | --- |
| 0.09 nM | cyclo([TyrEtNAc]W[Phe(4-COOH)]G[Pro(trans-4-NH2)][1Nal(3S-Me)]D[dNMeA]G[Bip(4'-COOH)]WS[dA][hTyr]) (SMILES CC(=O)NCCOc1ccc(C[C@@H]2NC(=O)[C@H](CCc3ccc(O)cc3)NC(=O)[C@@H](C)NC(=O)[C@H](CO)NC(=O)[C@H](Cc3c[nH]c4ccccc34)NC(=O)[C@H](Cc3ccc(-c4ccc(C(=O)O)cc4)cc3)NC(=O)CNC(=O)[C@@H](C)N(C)C(=O)[C@H](CC(=O)O)NC(=O)[C@H]([C@@H](C)c3cccc4ccccc34)NC(=O)[C@@H]3C[C@@H](N)CN3C(=O)CNC(=O)[C@H](Cc3ccc(C(=O)O)cc3)NC(=O)[C@H](Cc3c[nH]c4ccccc34)NC2=O)cc1) [SEQ ID NO: 128 (Example No. 128)] |
| 0.37 nM | cyclo([TyrEtNAc]W[Phe(4-COOH)]G[Pro(trans-4-NH2)][Trp(4-Cl)(βS-Me)]D[dNMeA]G[Bip(4'-COOH)][1Nal][Orn][Aib]G) (SMILES CC(=O)NCCOc1ccc(C[C@@H]2NC(=O)CNC(=O)C(C)(C)NC(=O)[C@H](CCCN)NC(=O)[C@H](Cc3cccc4ccccc34)NC(=O)[C@H](Cc3ccc(-c4ccc(C(=O)O)cc4)cc3)NC(=O)CNC(=O)[C@@H](C)N(C)C(=O)[C@H](CC(=O)O)NC(=O)[C@H]([C@@H](C)c3c[nH]c4cccc(Cl)c34)NC(=O)[C@@H]3C[C@@H](N)CN3C(=O)CNC(=O)[C@H](Cc3ccc(C(=O)O)cc3)NC(=O)[C@H](Cc3c[nH]c4ccccc34)NC2=O)cc1) [SEQ ID NO: 132 (Example No. 132)] |
| 0.0248 nM | cyclo([TyrEtNAc]W[Phe(4-COOH)]G[Pro(trans-4-NH2)][1Nal(3S-Me)]D[dNMeA]G[Bip(4'-COOH)]WG[dDab][h3Pal(5-CN)]) (SMILES CC(=O)NCCOc1ccc(C[C@@H]2NC(=O)[C@H](CCc3cncc(C#N)c3)NC(=O)[C@@H](CCN)NC(=O)CNC(=O)[C@H](Cc3c[nH]c4ccccc34)NC(=O)[C@H](Cc3ccc(-c4ccc(C(=O)O)cc4)cc3)NC(=O)CNC(=O)[C@@H](C)N(C)C(=O)[C@H](CC(=O)O)NC(=O)[C@H]([C@@H](C)c3cccc4ccccc34)NC(=O)[C@@H]3C[C@@H](N)CN3C(=O)CNC(=O)[C@H](Cc3ccc(C(=O)O)cc3)NC(=O)[C@H](Cc3c[nH]c4ccccc34)NC2=O)cc1) [SEQ ID NO: 122 (Example No. 122)] |
| 0.37 nM | cyclo([TyrEtNAc]W[Phe(4-COOH)]G[Pro(trans-4-NH2)][1Nal(3S-Me)]D[dNMeA]G[Bip(4'-COOH)]WL[dDab][hTyr]) (SMILES CC(=O)NCCOc1ccc(C[C@@H]2NC(=O)[C@H](CCc3ccc(O)cc3)NC(=O)[C@@H](CCN)NC(=O)[C@H](CC(C)C)NC(=O)[C@H](Cc3c[nH]c4ccccc34)NC(=O)[C@H](Cc3ccc(-c4ccc(C(=O)O)cc4)cc3)NC(=O)CNC(=O)[C@@H](C)N(C)C(=O)[C@H](CC(=O)O)NC(=O)[C@H]([C@@H](C)c3cccc4ccccc34)NC(=O)[C@@H]3C[C@@H](N)CN3C(=O)CNC(=O)[C@H](Cc3ccc(C(=O)O)cc3)NC(=O)[C@H](Cc3c[nH]c4ccccc34)NC2=O)cc1) [SEQ ID NO: 126 (Example No. 126)] |
| 0.0457 nM | cyclo([TyrEtNAc]W[Phe(4-COOH)]G[Pro(trans-4-NH2)][1Nal(3S-Me)]D[dNMeA]G[Bip(4'-COOH)]WG[dDab][hTyr]) (SMILES CC(=O)NCCOc1ccc(C[C@@H]2NC(=O)[C@H](CCc3ccc(O)cc3)NC(=O)[C@@H](CCN)NC(=O)CNC(=O)[C@H](Cc3c[nH]c4ccccc34)NC(=O)[C@H](Cc3ccc(-c4ccc(C(=O)O)cc4)cc3)NC(=O)CNC(=O)[C@@H](C)N(C)C(=O)[C@H](CC(=O)O)NC(=O)[C@H]([C@@H](C)c3cccc4ccccc34)NC(=O)[C@@H]3C[C@@H](N)CN3C(=O)CNC(=O)[C@H](Cc3ccc(C(=O)O)cc3)NC(=O)[C@H](Cc3c[nH]c4ccccc34)NC2=O)cc1) [SEQ ID NO: 123 (Example No. 123)] |
| 0.064 nM | cyclo([TyrEtNAc]W[Phe(4-COOH)]G[Pro(trans-4-NH2)][1Nal(3S-Me)]D[dNMeA]G[Bip(4'-COOH)]WL[dA][hTyr]) (SMILES CC(=O)NCCOc1ccc(C[C@@H]2NC(=O)[C@H](CCc3ccc(O)cc3)NC(=O)[C@@H](C)NC(=O)[C@H](CC(C)C)NC(=O)[C@H](Cc3c[nH]c4ccccc34)NC(=O)[C@H](Cc3ccc(-c4ccc(C(=O)O)cc4)cc3)NC(=O)CNC(=O)[C@@H](C)N(C)C(=O)[C@H](CC(=O)O)NC(=O)[C@H]([C@@H](C)c3cccc4ccccc34)NC(=O)[C@@H]3C[C@@H](N)CN3C(=O)CNC(=O)[C@H](Cc3ccc(C(=O)O)cc3)NC(=O)[C@H](Cc3c[nH]c4ccccc34)NC2=O)cc1) [SEQ ID NO: 125 (Example No. 125)] |
| 0.766 nM | cyclo([TyrEtNAc]W[Phe(4-COOH)]G[Pro(trans-4-NH2)][Trp(4-Cl)(βS-Me)]D[dNMeA]G[Bip(4'-COOH)][1Nal]S[dA][Phe(4-NH2)]) (SMILES CC(=O)NCCOc1ccc(C[C@@H]2NC(=O)[C@H](Cc3ccc(N)cc3)NC(=O)[C@@H](C)NC(=O)[C@H](CO)NC(=O)[C@H](Cc3cccc4ccccc34)NC(=O)[C@H](Cc3ccc(-c4ccc(C(=O)O)cc4)cc3)NC(=O)CNC(=O)[C@@H](C)N(C)C(=O)[C@H](CC(=O)O)NC(=O)[C@H]([C@@H](C)c3c[nH]c4cccc(Cl)c34)NC(=O)[C@@H]3C[C@@H](N)CN3C(=O)CNC(=O)[C@H](Cc3ccc(C(=O)O)cc3)NC(=O)[C@H](Cc3c[nH]c4ccccc34)NC2=O)cc1) [SEQ ID NO: 133 (Example No. 133)] |
